Test results reported in patent US20260098059A1 (ENDOMET BIOSCIENCES, published 2026).
Where “and” joins values, the source holds several entries; their conditions need not be identical. Equal values may be shown once. Bridges are numbered along the chain shown (N, C = ends). [ ]: non-standard residue; d: D form. The star is where a group is joined. NMeW = CN[C@@H](Cc1c[nH]c2ccccc12)C(=O)O; Chg = N[C@H](C(=O)O)C1CCCCC1; Lauroyl = CCCCCCCCCCCC(=O)*; αMeS = C[C@](N)(CO)C(=O)O; NMeA = CN[C@@H](C)C(=O)O

T1: β-catenin (UniProt P35222 134-665, limits assumed, biotinylated in the SPR and plate assays)
T1 sequence (looked up): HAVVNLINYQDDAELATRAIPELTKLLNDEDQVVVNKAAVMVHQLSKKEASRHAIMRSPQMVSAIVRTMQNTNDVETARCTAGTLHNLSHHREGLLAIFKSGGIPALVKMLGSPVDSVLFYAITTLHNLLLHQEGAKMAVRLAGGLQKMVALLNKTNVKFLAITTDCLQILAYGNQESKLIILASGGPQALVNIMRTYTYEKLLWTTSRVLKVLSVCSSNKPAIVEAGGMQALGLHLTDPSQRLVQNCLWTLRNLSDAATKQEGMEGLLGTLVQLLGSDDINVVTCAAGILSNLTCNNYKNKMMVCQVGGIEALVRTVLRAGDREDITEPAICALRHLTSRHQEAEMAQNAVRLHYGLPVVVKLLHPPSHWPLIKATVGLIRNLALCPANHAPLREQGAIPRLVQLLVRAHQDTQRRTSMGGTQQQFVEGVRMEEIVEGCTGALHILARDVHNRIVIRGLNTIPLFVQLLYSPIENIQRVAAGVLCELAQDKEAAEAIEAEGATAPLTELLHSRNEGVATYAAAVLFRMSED

B1: SEQ ID NO: 442 (peptide)
peptide: WXQKILDEHGQRVWG
HELM: PEPTIDE1{[ac].W.[O=C([C@@H]1CCCCN1[*:1])[*:2]].Q.K.I.L.D.E.H.[O=C([C@@H](N[*:1])C1CCCCC1)[*:2]].Q.R.V.W.G.[am]}$PEPTIDE1,PEPTIDE1,5:R3-9:R3$$$V2.0
SMILES: CC[C@H](C)[C@@H]1NC(=O)[C@@H](NC(=O)[C@H](CCC(N)=O)NC(=O)[C@@H]2CCCCN2C(=O)[C@H](Cc2c[nH]c3ccccc23)NC(C)=O)CCCCNC(=O)CC[C@@H](C(=O)N[C@@H](Cc2c[nH]cn2)C(=O)N[C@H](C(=O)N[C@@H](CCC(N)=O)C(=O)N[C@@H](CCCNC(=N)N)C(=O)N[C@H](C(=O)N[C@@H](Cc2c[nH]c3ccccc23)C(=O)NCC(N)=O)C(C)C)C2CCCCC2)NC(=O)[C@H](CC(=O)O)NC(=O)[C@H](CC(C)C)NC1=O
B2: SEQ ID NO: 445 (peptide)
peptide: AQKILDEHGQRVW
HELM: PEPTIDE1{[ac].[meA].Q.K.I.L.D.E.H.[O=C([C@@H](N[*:1])C1CCCCC1)[*:2]].Q.R.V.W.[am]}$PEPTIDE1,PEPTIDE1,4:R3-8:R3$$$V2.0
SMILES: CC[C@H](C)[C@@H]1NC(=O)[C@@H](NC(=O)[C@H](CCC(N)=O)NC(=O)[C@H](C)N(C)C(C)=O)CCCCNC(=O)CC[C@@H](C(=O)N[C@@H](Cc2c[nH]cn2)C(=O)N[C@H](C(=O)N[C@@H](CCC(N)=O)C(=O)N[C@@H](CCCNC(=N)N)C(=O)N[C@H](C(=O)N[C@@H](Cc2c[nH]c3ccccc23)C(N)=O)C(C)C)C2CCCCC2)NC(=O)[C@H](CC(=O)O)NC(=O)[C@H](CC(C)C)NC1=O
B3: SEQ ID NO: 467 (peptide)
peptide: Lauroyl-W[NMeA]QSILDEH[Chg]QKVW-NH2
modifications: lactam 8-12; not fully specified; printed as Lauroyl-NH-W-NMeA-QSILDE*H-Chg-QK*VW-NH2
B4: SEQ ID NO: 465 (peptide)
peptide: Lauroyl-W[NMeA]QKILDEH[Chg]EDVWK-NH2
modifications: lactam 11-15, 4-8 (inferred)
B5: SEQ ID NO: 452 (peptide)
peptide: WAQKILNDHGQAV
HELM: PEPTIDE1{[ac].W.[meA].Q.K.I.L.N.D.H.[O=C([C@@H](N[*:1])C1CCCCC1)[*:2]].Q.A.V.[am]}$PEPTIDE1,PEPTIDE1,5:R3-9:R3$$$V2.0
SMILES: CC[C@H](C)[C@@H]1NC(=O)[C@@H](NC(=O)[C@H](CCC(N)=O)NC(=O)[C@H](C)N(C)C(=O)[C@H](Cc2c[nH]c3ccccc23)NC(C)=O)CCCCNC(=O)C[C@@H](C(=O)N[C@@H](Cc2c[nH]cn2)C(=O)N[C@H](C(=O)N[C@@H](CCC(N)=O)C(=O)N[C@@H](C)C(=O)N[C@H](C(N)=O)C(C)C)C2CCCCC2)NC(=O)[C@H](CC(N)=O)NC(=O)[C@H](CC(C)C)NC1=O
B6: SEQ ID NO: 441 (peptide)
peptide: WAQKILDEHGQRVWG
HELM: PEPTIDE1{[ac].W.A.Q.K.I.L.D.E.H.[O=C([C@@H](N[*:1])C1CCCCC1)[*:2]].Q.R.V.W.G.[am]}$PEPTIDE1,PEPTIDE1,5:R3-9:R3$$$V2.0
SMILES: CC[C@H](C)[C@@H]1NC(=O)[C@@H](NC(=O)[C@H](CCC(N)=O)NC(=O)[C@H](C)NC(=O)[C@H](Cc2c[nH]c3ccccc23)NC(C)=O)CCCCNC(=O)CC[C@@H](C(=O)N[C@@H](Cc2c[nH]cn2)C(=O)N[C@H](C(=O)N[C@@H](CCC(N)=O)C(=O)N[C@@H](CCCNC(=N)N)C(=O)N[C@H](C(=O)N[C@@H](Cc2c[nH]c3ccccc23)C(=O)NCC(N)=O)C(C)C)C2CCCCC2)NC(=O)[C@H](CC(=O)O)NC(=O)[C@H](CC(C)C)NC1=O
B7: SEQ ID NO: 448 (peptide)
peptide: AQKILDEHGQRVWR
HELM: PEPTIDE1{[ac].[meA].Q.K.I.L.D.E.H.[O=C([C@@H](N[*:1])C1CCCCC1)[*:2]].Q.R.V.W.R.[am]}$PEPTIDE1,PEPTIDE1,4:R3-8:R3$$$V2.0
SMILES: CC[C@H](C)[C@@H]1NC(=O)[C@@H](NC(=O)[C@H](CCC(N)=O)NC(=O)[C@H](C)N(C)C(C)=O)CCCCNC(=O)CC[C@@H](C(=O)N[C@@H](Cc2c[nH]cn2)C(=O)N[C@H](C(=O)N[C@@H](CCC(N)=O)C(=O)N[C@@H](CCCNC(=N)N)C(=O)N[C@H](C(=O)N[C@@H](Cc2c[nH]c3ccccc23)C(=O)N[C@@H](CCCNC(=N)N)C(N)=O)C(C)C)C2CCCCC2)NC(=O)[C@H](CC(=O)O)NC(=O)[C@H](CC(C)C)NC1=O
B8: SEQ ID NO: 463 (peptide)
peptide: WPQSILDKHGQDVW
modifications: not fully specified; Lauroyl-NH-WPQSILDK*H-Chg-QD*VW-NH2
B9: SEQ ID NO: 459 (peptide)
peptide: Lauroyl-W[NMeA]QKILNDH[Chg]QAVW-NH2
modifications: lactam 4-8
B10: SEQ ID NO: 444 (peptide)
peptide: EDPQKILDEHLQRVLK
modifications: not fully specified; H23C11C(O)NH-EDPQK*ILDE*HLQRVLK-NH2
B11: SEQ ID NO: 469 (peptide)
peptide: WPQSILDEHGQKVW
modifications: not fully specified; Lauroyl-NH-WPQSILDE*H-Chg-QK*VW-NH2
B12: SEQ ID NO: 447 (peptide)
peptide: WAQKILDEHGQRVW
HELM: PEPTIDE1{[CCCCCCCCCCCC(=O)[*:2]].W.[meA].Q.K.I.L.D.E.H.[O=C([C@@H](N[*:1])C1CCCCC1)[*:2]].Q.R.V.W.[am]}$PEPTIDE1,PEPTIDE1,5:R3-9:R3$$$V2.0
SMILES: CCCCCCCCCCCC(=O)N[C@@H](Cc1c[nH]c2ccccc12)C(=O)N(C)[C@@H](C)C(=O)N[C@@H](CCC(N)=O)C(=O)N[C@H]1CCCCNC(=O)CC[C@@H](C(=O)N[C@@H](Cc2c[nH]cn2)C(=O)N[C@H](C(=O)N[C@@H](CCC(N)=O)C(=O)N[C@@H](CCCNC(=N)N)C(=O)N[C@H](C(=O)N[C@@H](Cc2c[nH]c3ccccc23)C(N)=O)C(C)C)C2CCCCC2)NC(=O)[C@H](CC(=O)O)NC(=O)[C@H](CC(C)C)NC(=O)[C@H]([C@@H](C)CC)NC1=O
B13: SEQ ID NO: 66 (peptide)
peptide: H-MSRMWYLISFWG-OH
B14: SEQ ID NO: 69 (peptide)
peptide: H-MSRMWFLISFRG-OH
B15: SEQ ID NO: 440 (peptide)
peptide: QKILDEHGQRVWG
HELM: PEPTIDE1{[ac].Q.K.I.L.D.E.H.[O=C([C@@H](N[*:1])C1CCCCC1)[*:2]].Q.R.V.W.G.[am]}$PEPTIDE1,PEPTIDE1,3:R3-7:R3$$$V2.0
SMILES: CC[C@H](C)[C@@H]1NC(=O)[C@@H](NC(=O)[C@H](CCC(N)=O)NC(C)=O)CCCCNC(=O)CC[C@@H](C(=O)N[C@@H](Cc2c[nH]cn2)C(=O)N[C@H](C(=O)N[C@@H](CCC(N)=O)C(=O)N[C@@H](CCCNC(=N)N)C(=O)N[C@H](C(=O)N[C@@H](Cc2c[nH]c3ccccc23)C(=O)NCC(N)=O)C(C)C)C2CCCCC2)NC(=O)[C@H](CC(=O)O)NC(=O)[C@H](CC(C)C)NC1=O
B16: SEQ ID NO: 461 (peptide)
peptide: Lauroyl-W[NMeA]QSILDKH[Chg]QDVW-NH2
modifications: lactam 8-12; not fully specified; printed as Lauroyl-NH-W-NMeA-QSILDK*H-Chg-QD*VW-NH2
B17: SEQ ID NO: 471 (peptide)
peptide: Lauroyl-W[NMeA]QSILDEH[Chg]QKVWG-NH2
modifications: lactam 8-12; not fully specified; printed as Lauroyl-NH-W-NMeA-QSILDE*H-Chg-QK*VWG-NH2
B18: SEQ ID NO: 443 (peptide)
peptide: WXQKILDEHGQRVWG
HELM: PEPTIDE1{[ac].W.[Aib].Q.K.I.L.D.E.H.[O=C([C@@H](N[*:1])C1CCCCC1)[*:2]].Q.R.V.W.G.[am]}$PEPTIDE1,PEPTIDE1,5:R3-9:R3$$$V2.0
SMILES: CC[C@H](C)[C@@H]1NC(=O)[C@@H](NC(=O)[C@H](CCC(N)=O)NC(=O)C(C)(C)NC(=O)[C@H](Cc2c[nH]c3ccccc23)NC(C)=O)CCCCNC(=O)CC[C@@H](C(=O)N[C@@H](Cc2c[nH]cn2)C(=O)N[C@H](C(=O)N[C@@H](CCC(N)=O)C(=O)N[C@@H](CCCNC(=N)N)C(=O)N[C@H](C(=O)N[C@@H](Cc2c[nH]c3ccccc23)C(=O)NCC(N)=O)C(C)C)C2CCCCC2)NC(=O)[C@H](CC(=O)O)NC(=O)[C@H](CC(C)C)NC1=O
B19: SEQ ID NO: 40 (peptide)
peptide: H-W[NMeW]E[αMeS]ILDEHVQRVWG-NH2

Molecular target: T1, β-catenin
Assay: cell-based or functional assay

| Wnt Reporter EC50 | Binder |
| --- | --- |
| ≤ 7.5 µM | B1 |
| > 22.5 µM and ≤ 30 µM | B2 |
| ≤ 7.5 µM | B3 |
| ≤ 7.5 µM | B4 |
| > 15 µM and ≤ 22.5 µM | B5 |
| > 30 µM | B6 |
| > 30 µM | B7 |
| ≤ 7.5 µM | B8 |
| ≤ 7.5 µM | B9 |
| > 30 µM | B10 |
| ≤ 7.5 µM | B11 |
| ≤ 7.5 µM | B12 |
| > 7.5 µM and ≤ 15 µM | B13 |
| > 30 µM | B14 |
| > 22.5 µM and ≤ 30 µM | B15 |
| ≤ 7.5 µM | B16 |
| ≤ 7.5 µM | B17 |
| > 7.5 µM and ≤ 15 µM | B18 |
| > 30 µM | B19 |

Molecular target: T1, β-catenin
Assay: competitive FP
How it was run: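 Competitive fluorescence polarization with inhibitor peptide serially diluted from 10 nM to 30 uM; polarization read at 470 nm excitation, 520 nm emission. Experiments performed three times.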

| Kd | Binder |
| --- | --- |
| ≤ 0.4 µM | B1 |
| ≤ 0.4 µM | B2 |
| ≤ 0.4 µM | B3 |
| > 0.4 µM and ≤ 1 µM | B4 |
| > 0.4 µM and ≤ 1 µM | B5 |
| ≤ 0.4 µM | B6 |
| ≤ 0.4 µM | B7 |
| ≤ 0.4 µM | B8 |
| ≤ 0.4 µM | B9 |
| ≤ 0.4 µM | B10 |
| ≤ 0.4 µM | B11 |
| ≤ 0.4 µM | B12 |
| > 10 µM and ≤ 30 µM | B13 |
| ≤ 0.4 µM | B14 |
| ≤ 0.4 µM | B15 |
| ≤ 0.4 µM | B16 |
| ≤ 0.4 µM | B17 |
| ≤ 0.4 µM | B18 |
| ≤ 0.4 µM | B19 |
